Results published in patent US8586570B2, “Sox-based kinase sensor” (Massachusetts Institute of Technology, priority 2006, dated 2013).

Columns and labels:
Experiment in all cases: Cross-reactivity of PKCα-S10 with PKC isozymes
Assay type in all cases: biochemical
Conditions in all cases: peptide 1 μM, isozyme 2 ng
PKCγ = PKCγ (Homo sapiens, UniProt P05129)
Procedure: (§1) With the kinetic parameters at hand it is possible to test the cross-reactivity of PKCα-S10 with PKC isozymes. In 12 separate reactions PKCα-S10 (1 μM) is subjected to phosphorylation with PKCα, PKCβI, PKCβII, PKCγ, PKCδ, PKCε, PKCζ, PKCη, PKCθ, PKCι, PKCμ and PKCν (2 ng).

PKCζ = target: T1, PKCζ (Homo sapiens, UniProt Q05513)
T1 sequence (Q05513 1-592): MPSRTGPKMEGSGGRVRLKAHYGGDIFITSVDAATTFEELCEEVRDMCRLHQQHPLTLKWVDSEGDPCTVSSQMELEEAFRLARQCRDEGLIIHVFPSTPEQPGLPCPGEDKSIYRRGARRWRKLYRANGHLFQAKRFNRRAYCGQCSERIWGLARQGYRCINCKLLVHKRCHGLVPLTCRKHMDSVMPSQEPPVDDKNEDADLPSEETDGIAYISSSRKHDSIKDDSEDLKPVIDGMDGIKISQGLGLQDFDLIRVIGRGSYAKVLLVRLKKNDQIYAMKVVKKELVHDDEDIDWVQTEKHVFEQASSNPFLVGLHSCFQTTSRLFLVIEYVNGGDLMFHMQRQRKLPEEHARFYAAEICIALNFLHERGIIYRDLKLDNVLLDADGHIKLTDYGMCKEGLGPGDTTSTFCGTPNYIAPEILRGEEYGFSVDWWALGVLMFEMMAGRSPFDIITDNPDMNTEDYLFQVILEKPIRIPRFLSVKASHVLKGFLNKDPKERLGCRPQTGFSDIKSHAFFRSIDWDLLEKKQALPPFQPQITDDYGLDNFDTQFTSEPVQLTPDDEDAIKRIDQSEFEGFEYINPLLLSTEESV
Procedure: as §1

PKCδ = PKCδ (Homo sapiens, UniProt Q05655)
Sequence of PKCδ (Q05655 whole entry): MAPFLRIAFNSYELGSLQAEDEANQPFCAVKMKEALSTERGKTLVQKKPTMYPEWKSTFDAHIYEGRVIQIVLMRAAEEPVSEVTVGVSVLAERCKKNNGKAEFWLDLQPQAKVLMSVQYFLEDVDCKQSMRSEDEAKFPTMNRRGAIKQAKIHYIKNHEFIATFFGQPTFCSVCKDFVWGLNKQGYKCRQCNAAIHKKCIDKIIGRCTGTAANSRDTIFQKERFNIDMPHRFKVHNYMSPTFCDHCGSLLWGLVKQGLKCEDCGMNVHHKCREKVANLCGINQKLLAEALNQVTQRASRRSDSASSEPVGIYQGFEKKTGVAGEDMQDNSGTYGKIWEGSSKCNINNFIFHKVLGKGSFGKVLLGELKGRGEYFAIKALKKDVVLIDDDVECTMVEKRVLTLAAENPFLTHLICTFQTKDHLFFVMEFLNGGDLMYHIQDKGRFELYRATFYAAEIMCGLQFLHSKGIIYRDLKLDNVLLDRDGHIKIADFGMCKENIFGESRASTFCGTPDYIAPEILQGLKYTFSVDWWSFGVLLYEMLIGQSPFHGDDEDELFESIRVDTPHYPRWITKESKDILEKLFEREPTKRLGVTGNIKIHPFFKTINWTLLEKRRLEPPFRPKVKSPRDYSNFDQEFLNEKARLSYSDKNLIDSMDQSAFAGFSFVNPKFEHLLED
Procedure: as §1

PKCθ = PKCθ (Homo sapiens, UniProt Q04759)
Sequence of PKCθ (Q04759 whole entry): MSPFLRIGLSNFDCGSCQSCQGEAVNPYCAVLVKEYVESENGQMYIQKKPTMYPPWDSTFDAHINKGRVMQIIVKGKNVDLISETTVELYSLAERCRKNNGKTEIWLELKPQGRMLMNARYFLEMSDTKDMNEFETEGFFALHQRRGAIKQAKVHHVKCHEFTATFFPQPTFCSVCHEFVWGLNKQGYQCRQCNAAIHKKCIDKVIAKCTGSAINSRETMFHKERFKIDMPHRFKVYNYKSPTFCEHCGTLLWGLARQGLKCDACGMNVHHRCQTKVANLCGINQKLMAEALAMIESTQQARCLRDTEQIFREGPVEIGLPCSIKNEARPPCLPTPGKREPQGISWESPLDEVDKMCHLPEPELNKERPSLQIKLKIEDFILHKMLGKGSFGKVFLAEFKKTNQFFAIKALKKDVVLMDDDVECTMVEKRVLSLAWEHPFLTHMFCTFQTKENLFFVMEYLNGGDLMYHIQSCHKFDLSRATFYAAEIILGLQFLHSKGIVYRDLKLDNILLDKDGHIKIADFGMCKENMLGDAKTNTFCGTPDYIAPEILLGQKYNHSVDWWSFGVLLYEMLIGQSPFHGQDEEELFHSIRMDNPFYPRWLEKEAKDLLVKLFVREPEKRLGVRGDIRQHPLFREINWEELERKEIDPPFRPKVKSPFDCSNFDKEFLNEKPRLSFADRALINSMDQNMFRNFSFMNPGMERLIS
Procedure: as §1

PKCι = target: T2, PKCι (Homo sapiens, UniProt P41743)
T2 sequence (P41743 1-596): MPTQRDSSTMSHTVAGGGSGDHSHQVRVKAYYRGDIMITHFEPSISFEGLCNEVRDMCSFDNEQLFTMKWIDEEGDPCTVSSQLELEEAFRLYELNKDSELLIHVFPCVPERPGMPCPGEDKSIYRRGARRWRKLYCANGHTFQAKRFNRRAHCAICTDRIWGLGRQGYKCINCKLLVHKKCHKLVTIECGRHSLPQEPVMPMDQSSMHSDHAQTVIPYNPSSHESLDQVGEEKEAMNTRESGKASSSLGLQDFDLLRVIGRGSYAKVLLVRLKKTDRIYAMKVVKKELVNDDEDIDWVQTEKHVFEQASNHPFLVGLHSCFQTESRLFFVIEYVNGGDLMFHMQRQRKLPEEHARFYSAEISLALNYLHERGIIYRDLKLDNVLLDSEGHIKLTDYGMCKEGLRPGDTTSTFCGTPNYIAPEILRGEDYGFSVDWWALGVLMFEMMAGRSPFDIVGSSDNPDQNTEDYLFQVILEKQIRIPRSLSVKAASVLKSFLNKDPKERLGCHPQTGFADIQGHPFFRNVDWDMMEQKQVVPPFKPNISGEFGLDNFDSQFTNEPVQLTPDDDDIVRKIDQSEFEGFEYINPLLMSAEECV
Procedure: as §1

PKCη = PKCη (Homo sapiens, UniProt P24723)
Sequence of PKCη (P24723 whole entry): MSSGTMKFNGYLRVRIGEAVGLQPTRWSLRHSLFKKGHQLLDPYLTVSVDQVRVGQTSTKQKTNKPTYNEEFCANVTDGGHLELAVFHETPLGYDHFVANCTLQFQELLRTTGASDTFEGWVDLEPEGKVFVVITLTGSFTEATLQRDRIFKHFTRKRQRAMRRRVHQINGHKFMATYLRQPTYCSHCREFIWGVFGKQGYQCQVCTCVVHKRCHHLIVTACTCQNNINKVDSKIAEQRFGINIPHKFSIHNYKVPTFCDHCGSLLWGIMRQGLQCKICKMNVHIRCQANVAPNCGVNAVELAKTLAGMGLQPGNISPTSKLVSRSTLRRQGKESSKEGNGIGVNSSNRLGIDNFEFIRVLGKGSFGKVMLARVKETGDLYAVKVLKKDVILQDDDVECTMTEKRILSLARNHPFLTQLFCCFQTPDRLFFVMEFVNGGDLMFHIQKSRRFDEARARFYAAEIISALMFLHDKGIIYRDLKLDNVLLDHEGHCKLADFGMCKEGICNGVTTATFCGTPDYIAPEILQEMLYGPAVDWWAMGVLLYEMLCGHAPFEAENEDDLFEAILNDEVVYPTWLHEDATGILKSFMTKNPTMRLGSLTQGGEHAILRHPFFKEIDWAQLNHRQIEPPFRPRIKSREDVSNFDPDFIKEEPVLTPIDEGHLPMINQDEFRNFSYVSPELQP
Procedure: as §1

PKCβI = PKCβI (Homo sapiens, UniProt P05771)
Sequence of PKCβI (P05771 whole entry): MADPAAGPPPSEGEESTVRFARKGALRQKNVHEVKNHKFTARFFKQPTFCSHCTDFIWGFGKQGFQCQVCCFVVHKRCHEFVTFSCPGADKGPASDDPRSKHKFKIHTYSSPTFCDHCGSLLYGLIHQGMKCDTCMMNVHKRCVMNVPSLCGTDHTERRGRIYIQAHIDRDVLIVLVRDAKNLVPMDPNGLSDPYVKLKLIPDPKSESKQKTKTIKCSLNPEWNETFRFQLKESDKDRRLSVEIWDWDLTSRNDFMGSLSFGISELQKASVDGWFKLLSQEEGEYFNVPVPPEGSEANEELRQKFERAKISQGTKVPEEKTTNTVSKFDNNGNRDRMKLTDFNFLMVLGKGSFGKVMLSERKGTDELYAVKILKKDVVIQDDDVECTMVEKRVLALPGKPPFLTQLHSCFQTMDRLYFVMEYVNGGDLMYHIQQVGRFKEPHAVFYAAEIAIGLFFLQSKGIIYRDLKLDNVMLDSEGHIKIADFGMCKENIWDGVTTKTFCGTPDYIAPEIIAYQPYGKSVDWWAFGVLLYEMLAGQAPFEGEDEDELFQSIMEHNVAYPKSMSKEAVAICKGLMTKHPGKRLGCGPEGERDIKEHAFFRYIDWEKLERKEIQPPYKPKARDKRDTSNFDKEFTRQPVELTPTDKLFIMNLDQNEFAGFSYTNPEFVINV
Procedure: as §1

PKCε = target: T3, PKCε (Homo sapiens, UniProt Q02156)
T3 sequence (Q02156 1-737): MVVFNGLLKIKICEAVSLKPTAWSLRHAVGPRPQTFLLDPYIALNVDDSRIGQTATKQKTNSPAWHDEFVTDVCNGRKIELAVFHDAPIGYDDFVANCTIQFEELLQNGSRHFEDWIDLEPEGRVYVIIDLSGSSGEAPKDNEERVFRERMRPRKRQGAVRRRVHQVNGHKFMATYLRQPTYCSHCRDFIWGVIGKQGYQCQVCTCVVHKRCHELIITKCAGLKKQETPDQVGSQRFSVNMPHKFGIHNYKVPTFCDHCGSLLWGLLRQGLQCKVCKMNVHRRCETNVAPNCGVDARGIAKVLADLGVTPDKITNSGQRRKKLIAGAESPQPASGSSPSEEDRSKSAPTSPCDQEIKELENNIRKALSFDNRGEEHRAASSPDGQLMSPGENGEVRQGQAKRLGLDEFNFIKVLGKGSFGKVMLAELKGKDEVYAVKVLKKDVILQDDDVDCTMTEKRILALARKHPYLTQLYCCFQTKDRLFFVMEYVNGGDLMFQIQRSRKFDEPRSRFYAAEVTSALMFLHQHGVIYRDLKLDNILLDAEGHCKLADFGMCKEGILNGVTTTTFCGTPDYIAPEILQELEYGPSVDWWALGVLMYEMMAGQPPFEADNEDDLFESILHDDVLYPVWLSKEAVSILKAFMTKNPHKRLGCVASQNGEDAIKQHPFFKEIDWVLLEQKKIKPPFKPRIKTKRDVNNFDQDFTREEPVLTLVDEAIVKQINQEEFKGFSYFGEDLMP
Procedure: as §1

## Ac-RRR-C(Sox)-ASFRRKA-CONH2 [PKCα-S10(P10), Sox chemosensor with extended recognition domain for PKCα]
PKCγ
  activity of isozyme on peptide compared with PKCα: comparable activities to that of PKCα
PKCζ
  activity of isozyme on peptide: very little activity
PKCδ
  activity of isozyme on peptide: no activity
PKCθ
  activity of isozyme on peptide compared with PKCα: slightly more active than PKCα
PKCι
  activity of isozyme on peptide: very little activity
PKCη
  activity of isozyme on peptide: very little activity
PKCβI
  activity of isozyme on peptide compared with PKCα: slightly more active than PKCα
PKCε
  activity of isozyme on peptide: very little activity
